Target: Thrombin (human alpha-thrombin) (Homo sapiens, UniProt P00734;P00734 P00734:328-363,P00734:364-622)
Experiment: nanopore without motor protein; lower-current events with increasing thrombin concentration

B1: 29-mer thrombin-binding aptamer (TBA) with 30xT threading strand (ssDNA)
DNA: TTTTTTTTTTTTTTTTTTTTTTTTTTTTTTAGTCCGTGGTAGGGCAGGTTGGGGTGACT
B1: binds.

From patent US20250283153 (published 2025)
